Data: the supplement of paper PMC12455559
± gives the standard deviation of the averaged measurements.

Tests used:
[1] = PET hydrolysis, aromatic products released after 48 h (umol product/mg enzyme); higher = more PET depolymerization activity
Procedure: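 HTP-purified, SUMO-cleaved, tagless PET hydrolase candidates (5 ug, 1.43 mg/g PET) were incubated 48 h without shaking with 3.5 mg amorphous PET film (aFilm) or crystalline PET powder (cryPow) in 0.5 mL buffer: NaCitrate pH 4.5/5.5, NaPhosphate pH 6.5/7.5, glycine pH 8.5. Incubation was at 40 or 60 C. Aromatic products (TPA, MHET, BHET) in the supernatant were quantified by UV absorbance at 260/280 nm relative to buffer blanks and expressed per mg enzyme. LCC-ICCG was the positive control on every plate.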

[2] = purified protein yield per well (BCA); higher = higher soluble expression
Method in brief: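 Candidate enzymes were made in 2 mL autoinduction cultures of E. coli C41(DE3) with 100 µg/mL kanamycin, at 37 °C for 2 h and then 18 °C for 40 h, and purified with Ni-charged magnetic beads and SUMO protease cleavage. The Pierce Rapid Gold BCA kit gave purified protein yield per well. Values lower than 25 ug (0.1 mg/mL) are below the detection threshold.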

[3] = melting temperature (DSF); higher = more thermostable
Procedure: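 Candidate PET hydrolases were expressed in E. coli C41(DE3) in 2 mL autoinduction cultures in 24-deep-well plates, Ni-bead purified and released by SUMO protease cleavage on an OT-2 robot. Yield per well was measured by BCA; values below 25 ug (0.1 mg/mL) are below the detection threshold. Melting temperature was measured by differential scanning fluorimetry with Sypro Orange, ramping from 25 C at 0.3 C/step.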

[4] = substrate: cryPow, 40 °C, pH 4.5
[5] = substrate: cryPow, 40 °C, pH 5.5
[6] = substrate: cryPow, 40 °C, pH 6.5
[7] = substrate: cryPow, 40 °C, pH 7.5
[8] = substrate: aFilm, 40 °C, pH 4.5
[9] = substrate: aFilm, 40 °C, pH 5.5
[10] = substrate: aFilm, 40 °C, pH 6.5
[11] = substrate: aFilm, 40 °C, pH 7.5
[12] = substrate: aFilm, 60 °C, pH 4.5
[13] = substrate: aFilm, 60 °C, pH 5.5
[14] = substrate: aFilm, 60 °C, pH 6.5
[15] = substrate: aFilm, 60 °C, pH 7.5
[16] = substrate: cryPow, 60 °C, pH 4.5
[17] = substrate: cryPow, 60 °C, pH 5.5
[18] = substrate: cryPow, 60 °C, pH 6.5
[19] = substrate: cryPow, 60 °C, pH 7.5

Row | Sequence | PET hydrolysis [1, 4] | PET hydrolysis [1, 5] | PET hydrolysis [1, 6] | PET hydrolysis [1, 7] | purified protein yield per well [2] | melting temperature [3] | PET hydrolysis [1, 8] | PET hydrolysis [1, 9] | PET hydrolysis [1, 10] | PET hydrolysis [1, 11] | PET hydrolysis [1, 12] | PET hydrolysis [1, 13] | PET hydrolysis [1, 14] | PET hydrolysis [1, 15] | PET hydrolysis [1, 16] | PET hydrolysis [1, 17] | PET hydrolysis [1, 18] | PET hydrolysis [1, 19] | PET hydrolysis ([1]; substrate: aFilm, 40 °C, pH 8.5) | PET hydrolysis ([1]; substrate: aFilm, 60 °C, pH 8.5) | PET hydrolysis ([1]; substrate: cryPow, 40 °C, pH 8.5) | PET hydrolysis ([1]; substrate: cryPow, 60 °C, pH 8.5)
1 | ADLLSQGRPATASSTEKESTPASAAVDGDTGTRWSSTFGDPQWLQVDLGATATLSRIVLRWEAAYARTFRIQTSDDGTAWTTVHSTTTGAGGVQTLDVNGTGRYVRLHGTQRGTLYGYSLWEFQVYGSGDGTPPDGTIPDPTTASLEAAAGPLPTAAYTVPSPSGYGSGTVTYPTSGGAYPGVVLMPGYQGTQENLRWLAPRLASWGFVVLNVGTTTLLDDPASRGRQISAAGIQLLALGGTSGNPLSGKLDGTLGAVGHSMGGGGVMAALRDDPRFRAGVPTAPYYPNMNFSQVTDPTFFLTCQSDPVAHGNTYAVPWYTTMSRAEKLYVEVPGDHLCPMTGYGDKARQGKWIVSFLSLWLRADTRFGPFLCGPAREADKNNTALVTRWMDTCPF [TEP160] | < 3 | < 3 | < 3 | < 3 | 31 µg | 68.5 C |  |  |  |  |  |  |  |  |  |  |  |  |  |  |  | 
2 | ADLLSQGRPVTASSTENASTPASAAVDGNTGTRWSSAFSDPQWLTVDLGTTATISRVVLRWETAYARRFQIQTSDDGTAWTTIHSATAGTGGVQTLDVTGSGRYVRVHGTQRGTAYGYSLWEFQVYGTRGTTPGEGIPDPSTASLEAAAGPLTTATYTVPDPSGYGSGTVTYPTAGGSYPGVVLMPGYQGTQQNLQWLAPRLASWGFVVLNVGTNTLTDDPASRGRQITAAGTQLLALGAATGNPLSGKVNGTLGAVGHSMGGGGVMAALRDDARFRAGVPTAPYYPNGNFSGVTDPTFFLTCQSDPVAHGNSYALPWYNSMSQSEKLYIEVPGDHLCPMTGSGDKAKQGKWIVSFLSHWLRADTRFTPFLCGPAREADKNDPSLVTRWMDTCPL [TEP036] | < 3 | < 3 | < 3 | < 3 | 230 µg | 51.4 C | < 3 | < 3 | < 3 | < 3 | < 3 | < 3 | < 3 | < 3 | < 3 | < 3 | < 3 | < 3 |  |  |  | 
3 | ADNPFQRGPDPTRASVAAQTGPFANASVSVPTGYGFNGGRIYYPTDTSQGTFGAIAISPGYTALFSAELAWMGPWLASHGFVVIGIETNSRNDFDTARGTQLLAALDYLTQQSPVRDRVDPNRLAVSGHSMGGGGALSAASRRSSLKAAVGITPYSPSSNLANDRVPTMIISGQADTVVTPSYALGLYNSLPATTESVYLEVAGGDHGFMVGRSNPVMIRTMLPFVKMFIDNDTRYSQFLCPLADSSGVVTYRSTCPLLPGAPTTPPTTPPTDSPGSAGEIVGTQSGRCIDVPNAARDNGTRVQLYDCNKQPNQSWTYTSNKQLQVYGDRCLDAAGSGNGAAVQIYSCHSQTNQQWNLNSNGTISNVQSGRCLDVWSTANGAQVQLYDCHGQTNQQFRLASRTR [DP061] |  | 14 ± 2.8 | 20 ± 1.4 | 7.5 ± 5 | 265 µg | 59.8 C |  | < 3 | < 3 | < 3 |  | < 3 | < 3 | < 3 |  | < 3 | < 3 | < 3 | < 3 | < 3 | 2 ± 2.8 | < 3
4 | ADNPFQRGPNPTVASVAATRGTFATAQTSVPAGNGFGGGVIYYPTDTSQGTFGGVAIVPGYSALFANEEAWMGPWLASFGFVVIGIETNSRTDSADARGTQLLAALDYLTQRSSVRDRVDPNRLSVVGHSAGGAGVLSALLRRPSLKAGVGLAPGSPVGNYDLYNDRVPTMFISGQRDTTVTQSYLNGLYSTLPATTPSAWVEITGVDHLFATRANTTEMRVLIPWLKIWVDNDTRYTQFLCPLADSSNISMYRNKCPYVPPGGSSPSPSASPSSSPSPSPSSSPSPSPSPSPSPSPSPSPSPTTSPSPPPPGACSAAYRTVNSWPGGYQGEVTVTAGGSAVNGWTVRWTLGSGQTITQLWNGTLSTSGSAVTVKNASFNGSIPASGSATFGFLATGTPSAPSLSCTSP [ESM007] | < 3 | < 3 | < 3 | < 3 | 424 µg | 59.2 C |  |  |  |  |  |  |  |  | < 3 | < 3 | < 3 | < 3 |  |  |  | 
5 | ADNPFQRGPNPTVASVAATRGTFATAQTSVPAGNGFGGGVVYYPTDTSQGTFGGVAIVPGYSALFADEEAWMGPWLASFGFVVIGIETNSRTDSADARGTELLAALDYLTQRSPVRDRVDPNRLSVVGHSAGGAGVLSALLRRPSLKAGVGLAPGSPVGNYDLYSDRVPTMFISGQRDTTVTQSYLNGLYSTLPATTPSAWVEITGVDHLFATRANTTEMRVLIPWLKIWVDNDTRYTQFLCPLADSTGISMYRDKCPYVPPGGSSPSPSASPSSTPSRSPSPSPSPSPSPSPSPSPSPSPSPSPSASPSLPPPGACVAEYRTMNSWPGGYQAMVTVTAGGTAVNGWTVRWTLGGGQTISQLWNGTLSTSGSAVTVKNASYNGSIPASGSATFGFLATGTPSTPSLTCTSP [ESM036] | < 3 | < 3 | < 3 | < 3 | 376 µg | 49.6 C | < 3 | < 3 | < 3 | < 3 | < 3 | < 3 | < 3 | < 3 | < 3 | < 3 | < 3 | < 3 |  |  |  | 
6 | ADNPFQRGPNPTVESVAATRGTFATAQTSVPAGNGFGGGVVYYPTDTSQGTFGGVAIVPGYSALFADEEAWMGPWLASFGFVVIGIETNSRTDSADARGTQLLAALDYLTQRSPVRDRVDPNRLSVVGHSAGGAGVLSALLRRPSLKAGVGLAPGSPVGNYDLYDDRVPTMFISGQRDTTVTRSYLNGLYGTLPATTPSAWVEITGVDHLFATRANTTEMRVLIPWLKIWVDDDTRYTRFLCPLADSTGISMYRDTCPYVPPGGSSPSPSASPSPSPSPSPSPSPSPSPSPSPSPSPSPSPSASPSASPSPPPPGACAAEYHTVNSWPGGYQASVTVTAGASAVQGWTVRWTLGSGQSITQLWNGTLSTSGSAVTVKNASYNGTIPASGSATFGFLATGTPSAPPLTCTSP [ESM067] | < 3 | < 3 | < 3 | < 3 | 447 µg | 57.1 C | < 3 | < 3 | < 3 | < 3 | < 3 | < 3 | < 3 | < 3 | < 3 | < 3 | < 3 | < 3 |  |  |  | 
7 | ADNPHQRGPNPTQASITANRGTFATAETSVGGGNGFGAAKIYYPTDTSQGTFGAIAVVPGYTATWAAEGAWMGHWLASFGFVVIGIDTLNRNDFDVARGTQLLAALDYLTQRSSVRTRVDPNRLAVMGHSMGGGGTISAALRWPTLKAAIGLAPYSPSQTTSGLQVPTMLLAGQNDGTSTPASIISLYNNIPASTEKSYLELAGAGHGFPTSNNSVMTRKVIPWMKIFIDQDARYTQFLCPLQDWTGIRSYRSSCPLLPGATFSLAGSASGKCVDVPGRVQTNGTGLIIWTCNGAVNQQWTRTAAGELRIYDNAKCMDANASGPGTRVTINSCNGGNSQKWTVNANGTVTNAASGRCIDTGGTADNAPVVVNTCTGGTSQT [ESM163] | < 3 | < 3 | < 3 | < 3 | 96.4 µg | 58 C |  |  |  |  |  |  |  |  | < 3 | < 3 | < 3 | < 3 |  |  |  | 
8 | ADNPHQRGPNPTQASVAASRGTFATSETSVGGGNGFGGAKIYYPTDTSQGKFAALAVSPGYTATWAAEGAWMGHWLASFGFVIIGIDTISRTDWDVARGDQLLAALDYLTQRSSVRDRVDASRVGVMGHSMGGGGAISAGLKRPSLKVVIGNAPYSASQNLTNMRVPVALLAGQRDTTVTPATTNSYYNQVPATTEKMYLELTNAPHSFPTSNNSVMTRKVIPWMKIFLDQDTRYQQFLCPLLDNTGIRTYRSSCPLIGDPMPPADTYRLAGAASGKCADVEGRSQANGAKLLLWTCNGQTNQRWTQTATGELRVYDNPKCVEAGTSAQGTRVTINACNGGNSQKWTVNANGTVTNAVSGRCLDAAGTADNSPIVVNTCTGAGSQNWSKRS [TEP049] | < 3 | < 3 | < 3 | < 3 | 68.7 µg | 50.8 C |  |  |  |  |  |  |  |  | < 3 | < 3 | < 3 | < 3 |  |  |  | 
9 | ADNPYERGPAPTAASIAADRGPFATAQVTVPRGNGFGGGVIYYPTDTSQGTFGAIAIAPGFGTAWSYYAWQGPRLASFGFVVIGIETNTLNDYADARATQLLAALDYLVNSSPVRDRVDRNRLAVGGHSMGGGGAILAANQRPSLLTAVGQAPYVPDGSLATIKSPTIIFAGQADGTVTPQYAQNAYNTIPSSVERAYVEIANEGHGFPAGGGGGNSGAFARTMMIWMKLFIDKDTRYAPFLCPSLSNANGISKYMASCPLDPPGGGPTASPTASPTVSPTVSPSGTPPATSAIRGVGSGRCLDVNGASQANGAQAQIWDCNGQNNQKWTTTSAGELRVYGNKCLDVNGGGTADGTSVIIWDCNGQNNQKWRLNTDGTITAVGANKCLDVSGAGTANGTKVQIWTCNGQNNQKWTRT [ESM038] | 4 | 10 | 16 | 19 | 190 µg | 68.8 C |  |  |  |  |  |  |  |  | < 3 | < 3 | 4 | 6 |  |  |  | 
10 | ADNPYERGPAPTEASVEAPRGPYAVSETTVSPLAVTGFGGGTVYYPTSTADGTFGAIAVSPGYTGTQSSIAWLGPRLASQGFVVFTIDTLTTLDQPDSRGRQLLAALDYLTQKSSVRGRIDSTRLGVMGHSMGGGGSLEAAKSRPSLQAAIPLTPWNLDKTWPEVATPTLIFGADGDTIAPVATHAEPFYTSLPASLDRAYLELNGATHFTPNTSNTTIAKYSIAWLKRFIDDDTRYEQFLCPLPRPGLTIEEYRGNCPHTS [TEP117] | < 3 | < 3 | < 3 | < 3 | 202 µg | 40 C | < 3 | < 3 | < 3 | < 3 | < 3 | < 3 | < 3 | < 3 | < 3 | < 3 | < 3 | < 3 |  |  |  | 
